From the nanobody polyreactivity screen of Harvey et al. (2022)

Assay: yeast display, Sf9 membrane polyspecificity reagent, FACS + sequencing; frameworks hold sequencing errors
Summary of the method: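 In a synthetic yeast display library (Saccharomyces cerevisiae BJ5465), nanobody expression was induced with galactose for 36–48 hours. FACS gates were set low and high (top ~1%) using anti-HA fluorescence for expression and streptavidin fluorescence for binding of the Sf9 membrane reagent. Each polyreactivity label is drawn from the gate of origin.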

Sequence	polyreactivity (PSR sort gate)
QVQLVESGGGLVQAGGSLRLSCADSGPTIFYYAMGWYRTAPGKERELVAAIRRSGGRTRYADSVKGRFTISRDNAKNTVYLQMNSLKPEDTAVYYCAADDGTHRRGYDYWGQGTQVTVSS	low polyreactivity
QVQLVESGGGLVQAGGSLRLICAASGRTFPYNAMGWYRQAPGKERELVAAISSGTRTDYADSVKGRFTISRDNAKNTVYLQMNSLKPEDTAVYYCAADYYHYLWRAYGFDYWGQGTQVTVSS	high polyreactivity
QVQLVESGGGLVQAGGSLRLSCAASGFTFRKNAMGWYRQAPGKERELVAAINSSGGSTYYADSVKGRFTISRDNAKNTVYLQMKSLKQEDTAVYSCNAVGRSLARPRGDYWGQGTQVTVSS	high polyreactivity
QVQLVESGGGLVQAGGSLRLSCSASGIIFIYYGMGWYRKAPGTERELVAAISRSGGRTYYADSVKGRFTISRDNANNIVYLQMNSLKPEDTAVYYCATTYTPTGFDYWGQGTQVTVSS	high polyreactivity
QVQLEESVGGLVQAGGSLRLSCAASGRIFTPYAMGWYRQAPGKERELVATISRGTSTSYADSVKGRFTISRDNAKNTVYLQMNSLKPEDTAVYYCAALGPRTTFRYTSYYYWGQGTQVTVSS	high polyreactivity
QVQLVESGGGLVQAGGSLRLSCAASGRTFYDYAMGWYRQAPGKERELVAAISSRGGRTYYADSVKGRFTISRDNAKNTVYLQMNSLKPEDSAVYYCAKVVDYNDRDSWGQGTQVTVSS	high polyreactivity
QVQLVQSGGGLVQAGGSLRLSCAASGSTFRIYAMGWYRQAPGKEREFVAAISDRGGRTYYADSVKGRFTISRDNAKNTVYLQMNSLKPEDTAVYYCAAVKLLSSAPGDDCQMNYWGQGTQVTVSS	low polyreactivity
QVQLVESVGGLVQAGGSLRLSCAASGRTFYTNAMGWYRQAPGKERELVAAITRGTSTSYADSVKGRFTISRDNAKNTVYLQMNSLKPEDTAVYYCAARGTQYSPSKSWFYYWGQGTQVTVSS	high polyreactivity
QDQLVESGGGLVQAGGSLRLSCAATGFTFYSYAMGWYRQAPGKERELVAGISRSGGSTYYADSVKGRFTISRDNGKNTVYLQMKSLKPVDTAVYYCNVGLRKKIQNSKYDYWGQGTQVTVSS	high polyreactivity
QVQLVESGGGLVQAGGSLRLSCAASGRTFAYYAMGWYRQAPGKERELVAAITQSGGRTYYADSVKGRFTISRDNAKNTVYLQMNSLKPEDTAVDYCAARRISGKWEYDYWGQGTQVTVSS	high polyreactivity
QVQLVESGGGLVQAGGSLRLSCAAYYAMGWYRQAPVKERELVAAISSTGRTNYADSVKGRFTISRDNAKNTVYLQMNSLKPEDTAVYYCAAEWHYIYAYDYWGQGTQVTVSS	low polyreactivity
QVQLVESGGGLVQAGGSLRLSCAASGITFPINAMGWSRQAPGKEREFVATISFSGASTYYADSVKGRFTISRDNAKNTVYLQMNSLKPEDTAVYYCAADLSLSTGGRAFPTYGYWGQGTQVTVSS	high polyreactivity
QVQLVESGGGLYQAGGSLRLTCAASGNIFYINTMGWYRQAPGKEMELVAAIEASDGSTYYADSVKGRFTISRDKAKNTVYLLMNSLKPEVTAVNYCATRRGYDSVYYFYTLWYYYWGQGTQVTVSS	low polyreactivity
QVHLVESGGGLVQAGGSLRLRCAASGSTFEYNAMGWYRPAPGKERELVASSTNYADSVKGRFTISRDNAKNTVSLQMNSLKPEDTAVYYCSREQGVNRNHDYWVQGTQVTVSS	low polyreactivity
QVQLVESGGGLVQAGGSLRLSCAASGFTFYGYAMGWYRQAPGKERELVASINRSGGTTYYADSVKGRFTISRDNAKNTVYLQMNSLKPEDTAVYYCAASYVYRFTKYYYWGQGTQVTVSS	high polyreactivity
QVQLVESGGVLVQAGGSLRLSCAASGRIFSNYAMGWYRQAPGKEWELVATIRKGGGSTYYADSVKGRFTISRDNAKNTVYLQMNSLKPEDTAVYYCAADGSLQTRRFDYWGQGTQVTVSS	high polyreactivity
QVQLVESGGGLVQAGGSLRLSCAASGYIFIRNAMGWYRQAPGKERELVAAISWTGGSTYYADSVKGRFTISRDNAKNTVYLQMNSLKPEDTAVYYCNKYYRAWLLWDYGYWGQGTQVTVSS	high polyreactivity
QVQLVESGGGLVQAGGSLRLSCAASGITFTSNTMGWYRQAPGKERELVAAISKSGGSTYYADSVKGRFTISRDNEKNTVYLQMNSLKPEDTAVYYCNTVSFYDPFGAYGYWGQGTQVTVSS	high polyreactivity
QVQLVESGGGLVQAGGSLRLSCAASGRTFVYNAMGWYRQAPGKERELVATIRSSGGSTYYADSVKGRFTISRDNAKNTVYLQMNSLKPEDTAVYYCAARWRPYGKFYYWGQGTQVTVSS	high polyreactivity
QVQLVESGGGLVQAGGSLRLSCAASGTTFTAYAMGWYREAPGKERELVAAINWSGGTTYYADSVKGRFTISRDNAKNTVYLQMTSLKPEDTAVYYCAVDGNFFVEVSPYDYWGQGTQVTVSS	low polyreactivity
QVQLVESGGGLVQAGGSLRLSCAASGRIFPFYDMGWYRQAPGKERELVAAITSGTGTYYADSVKGRFTISRDNAKNTVYLQIYSLKPEDTAVYYCNARRYLRGYWGQGTQVTVSS	low polyreactivity
QVQLVESGGGLVQAGGSLRLSCAASGRTFTGYTMGWYRQAPGKEREFVAAISSNGGRTYYADSVKGRFTISRDNAKNTVYIQMNSLKPEDTAVYYCAAPYTFWGQGTQVTVSS	high polyreactivity

Sequence	polyreactivity (PSR sort gate)
QVQLVESGGGLVQAGGSLRLSCAASGSTFQTYAMGWSRQAPGKERELVAAISFNGGSTYYADSVKGRFTISRDNAKNTVYLQMNSLKPEDTAVYYCAVEYTWATALYDGRHDYWGQGTQVTVSS	high polyreactivity
QVQLVESGGGLVQAGGSLRLSCAASGITFRRNAMGWYRQAPGKERELVARITGSGGSTYYADSVKGRFTISRDNAKNTVYLQMNSLKPEATAVYYCATERYGKYAMDYWGQGTQVTVSS	high polyreactivity
QVQLVESGGGLVQAGRSLRLSCAASGRTLHQYDMGWFRQAPGKEREFVAVIDSSDGSTYYADSVKGRFTISRDNVKNTVYLQMNSLKPEDSAVYYCLGGYYYLQYDYWGQGTQVTVSS	low polyreactivity
QVQLVESGGGLVQAGGSLRLSCAASGFTFSYYARGWYRQAPGKERELVAAISINGGRTYYADSVKGRFTISRDNAKNTVYLQMNSLKPEDTAVYYCNAVSYAYTVRMYYWGQVTQVTVSS	high polyreactivity
QVQLVESGGGLVQAGGSRRLSCAASGRTFQYYAMGCYRQAPGKERELVASITYNGDITYYADSVKGRFTISRDNAKNTVYLQMNSLKPEDTAVYYCAATKFSDFGYQAVIGYGYWGQGTQVTVSS	low polyreactivity
QVQLVESGGGLVQAGGSLRLSCAASGRTFYQYAMGWYRQAPGKERELVAAITTSGGSTYYADSVKGRFTISRDNAKNTVYLQMNSLKPEDTAVYYCAAPYTGYRERGSYKSDYWGQGTQVTVSS	low polyreactivity
QVQLVESGGGLVQAGGSLRLSCAASGSTFRRYAMGWNRKAPGKERELVAAISGRGGSTSYADSVTGRFTISRDNAKNTVFLQMNSLKPEETAVYYCAADDKYFYPGNGYWGQGTQVTVSS	high polyreactivity
QVQLEESGGGLVQAGGRIRLSCAASGRIFHGYAMGWYRQAPGKERELVAAISWRGDSTYYADSVKGRFTNSRDNAKNTVYLQMNSLKPEDTAVYYCNDLGENYQFNYWGLGTQVTVSS	low polyreactivity
QVQLVESGGGLVQAGGSLRLSCAASGSIFRANAMGWYRQAPGKERELVAAISYSGGSTYYADSVKGRFTISRDNAKNTVYLQMNTLKPEDTAVYYCAAEFLYASVYYSYWGQGTQVTVSS	high polyreactivity
QVQLVESGGGLVQAGGSLRLSCAASGSIFLNNAMGWYRQAPGKERELVAAITRNVGSTYYADSVKGRFTISRDNAKNTVYLQMNSLKPEDTAVYYCAADRRRRYDYWGQGTQVTVSS	low polyreactivity
RVQLVESGGGLVHAGCSLRLSCAASGNTFWYNAMGWYRQAPGKVRELVAAISYSGGGTYYADSVKGRFTISRDNAKNTVYLQMNSLKPEDTAVYYCAADTLQRSFVLYDYWGHGTQVTVSS	high polyreactivity
QVQLVESGGGLVQAGGSLRLSCAASGITIQGYAMGWYRQAPGKERELVAAINDSGSSTYYADSVKGRFTISRDNAKNTFYLQMNSLKPEYTAVYYCAAYLWLWGQGTQVTVSS	low polyreactivity
QVQIEESGGGLVQAGGSLRLSCAASGRTFYANVMGWSRQAPGIEWELVAAITYSGGSTYYADSVKGRFTISRDNAQNTVYVLMNCLKQEDTADYYCAADNVYTFYYWGQGTLVTVSS	low polyreactivity
QVQLVESGGGLVQAGGSLRLSCAASGFIFSVYAMGGYRQAPGKDTELVAVISTSGGRTYYADSVKGRFTISRDNAKNTVYLQMNSLKPEDTAVYYCAADGFQYTLGNYYWGQGTQVTVSS	high polyreactivity
QVQLVESGGGLVQAGGSLRLSCAASGSTFNRNAMGWYRQAPGKERELVAAISWRGDSTSYADSVKGRFTISRDNAKNTVYLQMNSLKPEDTAVYYCAAYRVILYYLYDYWGQGTQVTVSS	low polyreactivity
QVQLVESGGGLVQAGGSLRLSCAASGFIFHGYTMGWYRQAPGKERELVAGISFTGGSTYYADSVKGRFTISRDNAKNTVYLQMNSLKPEDTAVYYCAATYSSYWARYYYWGQGTQVTVSS	high polyreactivity
QDQLVESGGGLVQAGGSLRLSCAAYGSTSYTNAMGWYRQAPGKERELVAGITRSGDSTYYADSVKGRFTISRDTAKNTVYLQMKSLKPEDTAVYYCAADIGDYWLGYYTGYYYLGQGTQVTVSS	high polyreactivity
QVQLVESGGGLVQAGGSLRLTCAASGFTINFYAMGGYRQAPGKERELVAAITASGGGSTYYADSVKGRFTISRDNAKNTVYLQMNSLKPEDTAVYYCNADYTGSFYTYDYWGQGTQVTVSS	low polyreactivity
QVQLVESGGGIVQAGGSLRLSCAASGRIFKYNAMGWYRQAPGKERELVAAISWSDGSTYYADSVKGRFTISRDNAKNTVYLQMNSLKPEDTAVYYCAARGYGFPELDYWGQGTQVTVSS	high polyreactivity
QVQLVESGGGLVQAGGSHRLRCAASGLIIGDYGMGWYRQAPGKERELVAAITDRGGTTYYADSVKGRFTISRDNAKNTVYFQMNSLKPEDTAVYYCIARQSDIFDYDYWGQGSQVTVSS	low polyreactivity
QVQLVESGGGLVQAGGSLRLSCAASGFTFYVNAMGWYRQAPGKERELVAVISTGGSTYYADSVKGRFTISRDNAKNTVYLQMNSLKPEDTAVYYCAKRDLPDRSGTPNVIPFDYWGQGTQVTVSS	low polyreactivity
